Source: ChEMBL document CHEMBL1250451, “Mechanistic insights into a Ca2+-dependent family of alpha-mannosidases in a human gut symbiont” (Nat Chem Biol, 2010)

Columns and labels:
Type in all cases: protein assay
[1] = substrate: OC[C@H]1O[C@H](O[C@H]2[C@@H](O)[C@H](O)[C@@H](CO)O[C@@H]2O)[C@@H](O)[C@@H](O)[C@@H]1O; experiment: (§1) Ratio of Kcat to Km for Bacteroides thetaiotaomicron GH92 alpha-mannosidase GH92 alpha-mannosidase 3990 assessed as mannose release after 16 hrs by HPLC
[2] = substrate: O=[N+]([O-])c1ccc(O[C@H]2O[C@H](CO)[C@@H](O)[C@H](O)[C@@H]2O)c([N+](=O)[O-])c1; experiment: as §1
[3] = substrate: O=[N+]([O-])c1ccc(O[C@H]2O[C@H](CO)[C@@H](O)[C@H](O)[C@@H]2O)cc1; experiment: as §1
[4] = substrate: OC[C@H]1O[C@H](O[C@H]2[C@@H](O)[C@H](O)[C@@H](CO)O[C@@H]2O)[C@@H](O)[C@@H](O)[C@@H]1O; experiment: (§2) Activity of Bacteroides thetaiotaomicron GH92 alpha-mannosidase GH92 alpha-mannosidase 3990 assessed as mannose release after 16 hrs by HPLC
[5] = substrate: O=[N+]([O-])c1ccc(O[C@H]2O[C@H](CO)[C@@H](O)[C@H](O)[C@@H]2O)cc1; experiment: as §2
[6] = substrate: OC[C@H]1O[C@H](O[C@H]2[C@@H](O)[C@H](O)[C@@H](CO)O[C@@H]2O)[C@@H](O)[C@@H](O)[C@@H]1O; experiment: (§3) Activity of Bacteroides thetaiotaomicron GH92 alpha-mannosidase 2199 D648A mutant assessed as as mannose release after 16 hrs by HPLC relative to wild type enzyme
[7] = substrate: O=[N+]([O-])c1ccc(O[C@H]2O[C@H](CO)[C@@H](O)[C@H](O)[C@@H]2O)cc1; experiment: as §3
[8] = substrate: OC[C@H]1O[C@H](O[C@H]2[C@@H](O)[C@H](O)[C@@H](CO)O[C@@H]2O)[C@@H](O)[C@@H](O)[C@@H]1O; experiment: (§4) Ratio of Kcat to Km for Bacteroides thetaiotaomicron GH92 alpha-mannosidase 2199 D648A mutant assessed as as mannose release after 16 hrs by HPLC relative to wild type enzyme
[9] = substrate: O=[N+]([O-])c1ccc(O[C@H]2O[C@H](CO)[C@@H](O)[C@H](O)[C@@H]2O)cc1; experiment: as §4
[10] = substrate: OC[C@H]1O[C@H](O[C@H]2[C@@H](O)[C@H](O)[C@@H](CO)O[C@@H]2O)[C@@H](O)[C@@H](O)[C@@H]1O; experiment: (§5) Ratio of Kcat to Km for Bacteroides thetaiotaomicron GH92 alpha-mannosidase 2199 D648N mutant assessed as as mannose release after 16 hrs by HPLC relative to wild type enzyme
[11] = substrate: O=[N+]([O-])c1ccc(O[C@H]2O[C@H](CO)[C@@H](O)[C@H](O)[C@@H]2O)cc1; experiment: as §5
[12] = substrate: OC[C@H]1O[C@H](O[C@H]2[C@@H](O)[C@H](O)[C@@H](CO)O[C@@H]2O)[C@@H](O)[C@@H](O)[C@@H]1O; experiment: (§6) Activity of Bacteroides thetaiotaomicron GH92 alpha-mannosidase 2199 D648N mutant assessed as as mannose release after 16 hrs by HPLC relative to wild type enzyme
[13] = substrate: O=[N+]([O-])c1ccc(O[C@H]2O[C@H](CO)[C@@H](O)[C@H](O)[C@@H]2O)cc1; experiment: as §6

B1: Alpha-1,2-mannosidase (BT_3990) (Bacteroides thetaiotaomicron), Q8A0N1 (protein)
chain: MKRLLLIACILNCTLLSQAKDWTQYVNPLMGSQSTFELSTGNTYPAIARPWGMNFWTPQTGKMGDGWQYTYTANKIRGFKQTHQPSPWINDYGQFSIMPIVGQPVFDEEKRASWFAHKGEVATPYYYKVYLAEHDIVTEMTPTERAVLFRFTFPENDHSYVVVDAFDKGSYIKIIPEENKIIGYTTRNSGGVPENFKNYFIIEFDKPFTYKATVENGNLQENVAEQTTDHAGAIIGFKTRKGEQVNARIASSFISFEQAAANMNELGKDNIEQLAQKGKDAWNQVLGKIEVEGGNLDQYRTFYSCLYRSLLFPRKFYELDANGQPIHYSPYNGQVLPGYMFTDTGFWDTFRCLFPLLNLMYPSVNKEMQEGLINTYLESGFFPEWASPGHRGCMVGNNSASILVDAYMKGVKVDDIKTLYEGLIHGTENVHPEVSSTGRLGYEYYNKLGYVPYDVKINENAARTLEYAYDDWCIYRLAKELKRPKKEISLFAKRAMNYKNLFDKESKLMRGRNEDGTFQSPFSPLKWGDAFTEGNSWHYTWSVFHDPQGLIDLMGGKEMFVTMMDSVFAVPPIFDDSYYGQVIHEIREMTVMNMGNYAHGNQPIQHMIYLYDYAGQPWKAQYWLRQVMDRMYTPGPDGYCGDEDNGQTSAWYVFSALGFYPVCPGTDEYVMGTPLFKKATLHFENGNSLVIDAPNNSTENFYIDSMSFNGADHTKNYLRHEDLFKGGTIKVDMSNRPNLNRGTKEEDMPYSFSKE
B1 was tested, and the kcat/Km [1] was 113000 M⁻¹ s⁻¹, the kcat/Km [2] was 16.7 M⁻¹ s⁻¹ and the kcat/Km [3] was 21.7 M⁻¹ s⁻¹. It also gave a Km [4] of 760 µM, a kcat [4] of 86.7 s⁻¹ and a Km [5] of 4200 µM. It also gave a kcat [5] of 0.0933 s⁻¹.

B2: Alpha-1,2-mannosidase (BT_2199) (Bacteroides thetaiotaomicron), Q8A5N9 D648A (protein)
chain: MVTRLFFLSICFPFLLTSCQQSKKTVEFVDYVNPLMGTESTFAFSHGNTYPAVAVPWGMNFWSPQTGENGSGWMYTYTDSLMRGFRQTHQPSPWINDYGTFSIMPLAGELKMSHKERLVPFSHQQEKATPYNYSVTFNNGLQTSLSATSRGAVFEVSFPEKEDQYVVVDAYNGGSSITIEPEKRLVKGATRYNNGGVPDNFANYFMMEFSHPVIEYGTYNGDTLLHHQTDVAADYTCAYLKFDVPAGEKLTIRTASSFISPEQAAINFNREVADADVQLISGKAREQWNNYLGRVEAEGGTDEQLRTFYSCLYRTLLFPREFYEFDSQGNPVYYSPYDGNVHDGYMYTDNGFWDTFRAVHPLFTLLYPEVSERVTQSIINAYNESGFMPEWASPGHRGCMIGNNSVSLLVDAWMKGIQTVDAEKALEAMIHQTQARHAEIASVGRDGFEYYDKLGYVPYPEVPEATAKTLEYAYADWCIARFAESLGKQDIADQYYQKAPNYRNLYYPEHGFMWTKDAKGNWRDRFDATEWGGPFTEGSSWHWTWSVFHDPEGLSELMGGHEPMIARLDSMFVAPNTYNYGTYGFVIHEIAEMVALNMGQYAHGNQPVQHAIYLYDYIGQPWKTQYHLRNVMDKLYNSGSKGYCGDEANGQTSAWYVFSAMGFYPVCPGMPEYAIGSPLFKKVTLHLPEGKNFVVSAADNAADRPYIRKALLNGQEFTRNYLTHDELKQGGELNLSMDSVPNQQRGTQPADFPYSYSK
In the case of B2, the Km [6] is reported as 2720 µM, the kcat [6] is reported as 0.000433 s⁻¹ and the Km [7] is reported as “Not Active”. The kcat [7] was “Not Active”, the kcat/Km [8] was 0.167 M⁻¹ s⁻¹ and the kcat/Km [9] was “Not Active”.

B3: Alpha-1,2-mannosidase (BT_2199) (Bacteroides thetaiotaomicron), Q8A5N9 D648N (protein)
chain: MVTRLFFLSICFPFLLTSCQQSKKTVEFVDYVNPLMGTESTFAFSHGNTYPAVAVPWGMNFWSPQTGENGSGWMYTYTDSLMRGFRQTHQPSPWINDYGTFSIMPLAGELKMSHKERLVPFSHQQEKATPYNYSVTFNNGLQTSLSATSRGAVFEVSFPEKEDQYVVVDAYNGGSSITIEPEKRLVKGATRYNNGGVPDNFANYFMMEFSHPVIEYGTYNGDTLLHHQTDVAADYTCAYLKFDVPAGEKLTIRTASSFISPEQAAINFNREVADADVQLISGKAREQWNNYLGRVEAEGGTDEQLRTFYSCLYRTLLFPREFYEFDSQGNPVYYSPYDGNVHDGYMYTDNGFWDTFRAVHPLFTLLYPEVSERVTQSIINAYNESGFMPEWASPGHRGCMIGNNSVSLLVDAWMKGIQTVDAEKALEAMIHQTQARHAEIASVGRDGFEYYDKLGYVPYPEVPEATAKTLEYAYADWCIARFAESLGKQDIADQYYQKAPNYRNLYYPEHGFMWTKDAKGNWRDRFDATEWGGPFTEGSSWHWTWSVFHDPEGLSELMGGHEPMIARLDSMFVAPNTYNYGTYGFVIHEIAEMVALNMGQYAHGNQPVQHAIYLYDYIGQPWKTQYHLRNVMDKLYNSGSKGYCGDENNGQTSAWYVFSAMGFYPVCPGMPEYAIGSPLFKKVTLHLPEGKNFVVSAADNAADRPYIRKALLNGQEFTRNYLTHDELKQGGELNLSMDSVPNQQRGTQPADFPYSYSK
For B3, the kcat/Km [10] was 0.383 M⁻¹ s⁻¹, the kcat/Km [11] was “Not Active” and the Km [12] was 1270 µM. For the same protein, the kcat [12] was 0.000483 s⁻¹, the Km [13] was “Not Active” and the kcat [13] was “Not Active”.
